Laboratory results as given in patent publication US20200239562A1 (ANAPTYSBIO, published 2020).

Molecular target: T1, human IL-33 (human, UniProt O95760 112-270, limits assumed)
T1 construct: also called Interleukin-33
T1 sequence (looked up): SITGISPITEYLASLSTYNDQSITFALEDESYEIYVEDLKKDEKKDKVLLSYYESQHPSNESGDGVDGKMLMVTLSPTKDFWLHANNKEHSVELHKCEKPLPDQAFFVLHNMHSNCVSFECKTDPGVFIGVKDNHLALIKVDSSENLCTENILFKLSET
Assay: method not stated

B1: ANB020 (antibody, V domains shown)
VH: QVQLMQSGAEVKKPGASVKVSCKASGYTFTSYWMHWVRQAPGQGLEWMGTIYPRNSNTDYNQKFKARVTMTRDTSTSTVYMELSSLRSEDTAVYYCARPLYYYLTSPPTLFWGQGTLVTVSS
VL: DIQLTQSPSFLSASVGDRVTLTCKASQDVGTAVAWTQQKPGKAPKLLIYWASTRHTGVPSRFSGSGSGTEFTLTISSLQPEDFATYYCQQAKTYPFTFGSGTKLEIK
Kd: ~1 pM
